From publication PMC8960412
One block for each substance: values may come before it.

Experiments:
[1] = biological target: anti-huPD-1-huGITR-L bispecific (Anti-PD-1-GITR-L-hIgG1-LALA) (human) (UniProt Q9UNG2); experiment: SPR; bispecific captured as in the human SPR, recombinant human or cynomolgus GITR-His as analyte; cross-species experiment (Supplementary Table 11)
[2] = biological target: anti-huPD-1-huGITR-L bispecific (Anti-PD-1-GITR-L-hIgG1-LALA) (human) (UniProt Q9UNG2); experiment: SPR; Biacore T200; antibody constructs captured by goat anti-human H+L on a CM5 chip, recombinant human GITR-His as analyte; global 1:1 fit (Supplementary Table 3)
[3] = biological target: isotype/huGITR-L-hIgG1-LALA (human); experiment: as above
[4] = biological target: anti-PD-1-hIgG1-LALA (human); experiment: SPR; as for human FcRn/β2m: samples immobilised, cyno FcRn/β2m as analyte; pH 6.0
Chain of anti-PD-1-hIgG1-LALA (human) (heavy, as listed by the source, chain 1 of 2): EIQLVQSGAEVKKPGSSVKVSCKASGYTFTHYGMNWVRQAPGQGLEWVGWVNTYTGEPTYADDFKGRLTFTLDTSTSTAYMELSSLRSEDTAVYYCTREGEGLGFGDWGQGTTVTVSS
Chain of anti-PD-1-hIgG1-LALA (human) (light, as listed by the source, chain 2 of 2): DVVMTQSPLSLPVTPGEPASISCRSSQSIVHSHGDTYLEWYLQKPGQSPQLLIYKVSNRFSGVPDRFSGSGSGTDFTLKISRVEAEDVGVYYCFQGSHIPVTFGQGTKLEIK

[5] = biological target: anti-huPD-1-huGITR-L bispecific (Anti-PD-1-GITR-L-hIgG1-LALA) (human) (UniProt Q9UNG2); experiment: as above
[6] = biological target: isotype-hIgG1-LALA (human); experiment: as above
[7] = biological target: isotype/huGITR-L-hIgG1-LALA (human); experiment: as above
[8] = biological target: anti-PD-1-hIgG1-LALA (human); experiment: SPR; Biacore T200; samples directly immobilised by amine coupling, human FcRn/β2m as analyte; running buffer pH 6.0
[9] = biological target: anti-huPD-1-huGITR-L bispecific (Anti-PD-1-GITR-L-hIgG1-LALA) (human) (UniProt Q9UNG2); experiment: as above
[10] = biological target: isotype-hIgG1-LALA (human); experiment: as above
[11] = biological target: isotype/huGITR-L-hIgG1-LALA (human); experiment: as above
[12] = biological target: human GITR on transfected HEK293 cells (human) (UniProt Q9Y5U5); experiment: flow cytometry on cells; human GITR-HEK293 cells incubated with a serial dilution of antibodies; detected with PE goat anti-human IgG F(ab')2

Substance: Cyno GITR-His (recombinant extracellular domain of cynomolgus GITR) (domain or fragment)
Kd [1]: 0.79 nM
koff [1]: 0.00087 s⁻¹
kon [1]: 1.1e+06 M⁻¹ s⁻¹

Substance: isotype/huGITR-L-hIgG1-LALA
EC50 [12]: 0.9 nM

The next lines start with the values.

Kd [1]: 1.8 nM
koff [1]: 0.001 s⁻¹
kon [1]: 560000 M⁻¹ s⁻¹
Kd [2]: 16 nM
koff [2]: 0.0017 s⁻¹
kon [2]: 110000 M⁻¹ s⁻¹
Kd [3]: 15 nM
koff [3]: 0.0016 s⁻¹
kon [3]: 110000 M⁻¹ s⁻¹
Substance: Hu GITR-His (recombinant extracellular domain of human GITR) (from UniProt Q9Y5U5 26-162) (domain or fragment)

Kd [4]: 1900 nM
Kd [5]: 2000 nM
Kd [6]: 1700 nM
Kd [7]: 2200 nM
Substance: cyno FcRn/β2m heterodimer (from UniProt Q8SPV9 24-365; Q8SPW0 21-119) (complex)

Kd [8]: 2200 nM
Kd [9]: 2300 nM
Kd [10]: 2000 nM
Kd [11]: 2400 nM
Substance: human FcRn/β2m heterodimer (from UniProt P55899 24-297; P61769 21-119) (complex)
